Test [1] deals with TCR microclusters of 5C.C7 T cells. Kind of test: TCR microcluster formation at the T-cell synapse. The settings on record: 1 µM LA. In kind it is cell-based, mouse. The text has this: TCRs form microclusters upon antigen stimulation (Movie S4). To measure the conformational dynamics of single TCR–pMHC bonds without possible interference from TCR microclusters, we used latrunculin A (LA) to prevent the formation of TCR microclusters during smFRET measurements. […] We then performed smFRET in the absence of TCR microclusters.
To test whether TCR–CD3ζ conformational changes were dependent on TCR signaling, we used an Src kinase inhibitor PP2[27] to block TCR signaling. Consistent with the results of a previous study,[21] […] To reveal the role of TCR signaling in TCR–CD3ζ conformational changes, we plotted the time trajectories of the normalized intramolecular TCR–CD3ζ distances against the stimulation time in the absence and presence of PP2 (Fig. 4d). In the absence of PP2, the intracellular CD3ζ chain quickly separated from the TCR extracellular domain upon TCR engagement with the K5 pMHC and then reached a stable, fully extended TCR–CD3ζ conformation.
To measure the TCR–pMHC bond distance by smFRET in the absence of CD4 binding, T cells were incubated with 10 μg/mL anti-CD4 antibody (GK 1.5, Biolegend) and 0.027 µg/µL of Cy5-J1 scFV for 30 min at 4 °C. After three washes, the cells were added to a lipid bilayer containing Cy3-pMHCs, and smFRET assays were performed in the continuous presence of 10 μg/mL anti-CD4 antibody at 37 °C using TIRF microscopy. […]

For test [2], the system named is 5C.C7 TCR. Kind of test: Single-molecule FRET (smFRET) measurement of TCR–pMHC bond distance on lipid bilayer (TIRF). In kind it is cell-based, mouse. Conditions: 1 µM LA, 1 h pretreatment and continuous presence, smFRET 37 °C, K5, MCC, 102S, 339–1295 trajectories per histogram. The method, then:
We next performed Cy3/Cy5 single-molecule FRET (smFRET) on a lipid bilayer to measure the conformations of single TCR–pMHC bonds using TIRF microscopy (Fig. 2 and Fig. S1b). TCR–pMHC bond formation at live T-cell membrane brought the donor Cy3 and the acceptor Cy5 into close enough proximity to produce smFRET (Figs. 1a and 2a). The fluorescent intensities of Cy3 and Cy5 were simultaneously recorded in real time (Fig. 2b, top panel, and Fig. S4a), and the EFRET values were calculated based on the fluorescence intensities of the donor Cy3 and the acceptor Cy5 (Fig. 2b, bottom panel). […] By plotting the EFRET histogram and fitting it with a Gaussian function, we determined the most probale EFRET value of 0.7, corresponding to a 47 ± 3 Å distance between the 5C.C7 TCR and the super agonist K5 pMHC in a representative smFRET trajectory (Fig. 2c). […] We further measured the average TCR–pMHC bond distances using ensemble FRET on both a lipid bilayer and a glass surface (Figs. S4b and S7), and the results confirmed the single-bond measurements obtained using smFRET (Fig. 2d).
For the FRET measurements between TCRs and pMHCs on the cell surface (FRET1), we generated a peptide-exchangeable CLIP-IE^k molecule.[41] […] The protein fractions were analyzed by SDS-PAGE. […]

For test [3], the target named is 5C.C7 TCR (mouse (5C.C7 TCR transgenic mice)). Description: FRET or BRET; ensemble Cy3/Cy5 FRET1 at the synapse; His-tagged Cy3-pMHC on a lipid bilayer (95 molecules/um^2) or a PEG-Ni2+ glass surface with ICAM-1 and B7-1; TCR on live primary 5C.C7 T cells labelled with scFv J1-Cy5; 37 °C. On the technique in general: Bioluminescence resonance energy transfer reports proximity on the nanometre scale.

Test [4] shares this target. Description: 2D micropipette adhesion frequency assay; biotinylated pMHC monomers on human RBCs by biotin–streptavidin; 5C.C7 T-cell blasts pre-incubated with 10 ug/mL anti-CD4 (GK 1.5); contact times 0.25-5 s, 50 cycles each; 25 °C (legend of Fig. 5); effective 2D constants from a probabilistic kinetic model.
Test [5] has the same target.

In the case of `C/C1=C/C(=O)O[C@@H]2C[C@@H](CC[C@H](C)/C=C\C=C\CC1)O[C@@](O)([C@@H]1CSC(=O)N1)C2` [latrunculin A], the “effect of LA on TCR microcluster formation” value in test [1] is “no TCR microclusters were observed”. For the same compound, the “effect on TCR–pMHC bond distances (latrunculin A)” value is recorded as “very close to those measured in the presence of TCR microclusters” in test [2] and “no differences in the TCR–pMHC bond distances” in test [2] (listed as LA).

As for “K5(C)-Cy3 peptide on His-tagged IE^k (from UniProt P04230 30-225) (peptide-MHC)”, in test [3], the average synaptic E FRET1 came to 0.79.

Compound “MCC(C)-Cy3 peptide on His-tagged IE^k (from UniProt P04230 30-225) (peptide-MHC)” had an average synaptic E FRET1 in test [3] of 0.54.

“T102S(C)-Cy3 peptide on His-tagged IE^k (from UniProt P04230 30-225) (peptide-MHC)” had an average synaptic E FRET1 in test [3] of 0.29.

Broadly, the koff is a measure of how fast the partners let go of each other. Read a low koff as slow dissociation. In test [4], “biotinylated monomeric IE^k covalently complexed with the 102S peptide (from UniProt P04230 30-225) (peptide-MHC)” displayed an AcKa (effective 2D affinity) of 1.6e-05 µm^4, an AcKon (effective 2D on-rate) of 2.4e-06 µm^4 s^−1 and an off-rate constant (koff) of 1.5 s⁻¹. Moreover, the separation between the TCR and CD3ζ after TCR–pMHC binding (transmembrane GFP/Alexa568 FRET2, lipid bilayer, 37 °C) in test [5] was 5 Å.

As for “biotinylated monomeric IE^k covalently complexed with the K5 peptide (from UniProt P04230 30-225) (peptide-MHC)”, in test [4], the AcKa (effective 2D affinity) came out at 0.00037 µm^4, the AcKon (effective 2D on-rate) was 3.6e-05 µm^4 s^−1 and the koff was determined as 1 s⁻¹. This compound returned a separation between the TCR and CD3ζ after TCR–pMHC binding (transmembrane GFP/Alexa568 FRET2, lipid bilayer, 37 °C) in test [5] of 15 Å.

In test [4], “biotinylated monomeric IE^k covalently complexed with the MCC peptide (from UniProt P04230 30-225) (peptide-MHC)” had an AcKa (effective 2D affinity) of 0.00015 µm^4, an AcKon (effective 2D on-rate) of 2e-05 µm^4 s^−1 and a koff of 1.3 s⁻¹. The compound also yielded a separation between the TCR and CD3ζ after TCR–pMHC binding (transmembrane GFP/Alexa568 FRET2, lipid bilayer, 37 °C) in test [5] of 10 Å.

The values are drawn from publication PMC7052167, “TCR–pMHC bond conformation controls TCR ligand discrimination” (Cellular and Molecular Immunology, 2019).
